Laboratory results from patent US20260151494A1 (ARO BIOTHERAPEUTICS, published 2026).
Residue numbers refer to the chain shown, from its start.

B1: CD71-binding FN3 domain SEQ ID NO: 285 (designed binder)
chain: MSLPAPKNLVVSRVTEDSARLSWTATDAAFDSFEIGYWENAYKGEAIVLTVPGSERSYDLTGLKPGTEYVVFIGGVKGGVWSVPLSAIFTT
B2: CD71-binding FN3 domain SEQ ID NO: 286 (designed binder)
chain: MSLPAPKNLVVSRVTEDSARLSWTAPDAAFDSFEIVYAEPVRFGEAIVLTVPGSERSYDLTGLKPGTEYWVQIGGVKGGEWSSPLSAIFTT
B3: CD71-binding FN3 domain SEQ ID NO: 289 (designed binder)
chain: B2 chain with V36A, A38F, P40I, V41A, R42W, F43L, E80A, W81Y, S83T
B4: CD71-binding FN3 domain SEQ ID NO: 292 (designed binder)
chain: B1 chain with T26P, P84S
B5: CD71-binding FN3 domain SEQ ID NO: 296 (designed binder)
chain: B2 chain with E34D, V36G, A38F, P40L, V41T, R42W, F43Y, Q72S, E80I
B6: CD71-binding FN3 domain SEQ ID NO: 297 (designed binder)
chain: MSLPAPKNLVVSRVTEDSARLSWTAPDAAFDSFEISYFENTWYGEAIVLTVPGSERSYDLTGLKPGTEYSVRIFGVKGGNFSFPLSAIFTT
B7: CD71-binding FN3 domain SEQ ID NO: 298 (designed binder)
chain: B2 chain with V36G, A38F, P40N, V41L, R42Y, F43L, G79D, E80N, S83A
B8: CD71-binding FN3 domain SEQ ID NO: 299 (designed binder)
chain: B2 chain with V36A, A38F, P40N, V41L, R42Y, F43L, E80N, S83A
B9: CD71-binding FN3 domain SEQ ID NO: 300 (designed binder)
chain: B1 chain with T26P, W38F, N40A, A41T, Y42P, K43N, V70K, V80R, V83K
B10: CD71-binding FN3 domain SEQ ID NO: 301 (designed binder)
chain: B2 chain with A25T, V36G, A38F, P40N, V41L, R42Y, F43L, E80N, S83A
B11: CD71-binding FN3 domain SEQ ID NO: 304 (designed binder)
chain: B1 chain with T26P, W38F, A41L, K43L
B12: CD71-binding FN3 domain SEQ ID NO: 305 (designed binder)
chain: B2 chain with V36A, A38F, P40Q, V41T, R42Y, F43T, E80N, S83A
B13: CD71-binding FN3 domain SEQ ID NO: 306 (designed binder)
chain: B1 chain with T26P, Y37H, W38F, A41L, K43L, T67I, V70W, F72Q, P84S
B14: CD71-binding FN3 domain SEQ ID NO: 307 (designed binder)
chain: B6 chain with D31N, S36G, T41L, W42Y, Y43L, S70W, R72Q, F74G, N80T, F83A
B15: CD71-binding FN3 domain SEQ ID NO: 308 (designed binder)
chain: B2 chain with L21M, A25T, V36G, A38F, P40N, V41L, R42Y, F43L, E80N, S83A
B16: CD71-binding FN3 domain SEQ ID NO: 309 (designed binder)
chain: B2 chain with K7E, V36G, A38F, P40N, V41L, R42Y, F43L, E80N, S83A
B17: CD71-binding FN3 domain SEQ ID NO: 311 (designed binder)
chain: B1 chain with T26P, V80S, V83N
B18: CD71-binding FN3 domain SEQ ID NO: 312 (designed binder)
chain: B2 chain with V36G, A38F, P40N, V41L, R42Y, F43L, V51I, E80N, S83A
B19: CD71-binding FN3 domain SEQ ID NO: 313 (designed binder)
chain: B6 chain with S36A, T41D, Y43A, V51I, S70W, R72Q, F74G, F81W, F83A
B20: CD71-binding FN3 domain SEQ ID NO: 315 (designed binder)
chain: B2 chain with V36G, A38F, P40N, V41L, R42Y, F43L, E80N, S83A, F89S
B21: CD71-binding FN3 domain SEQ ID NO: 316 (designed binder)
chain: B2 chain with V11I, V36G, A38F, P40N, V41L, R42Y, F43L, E80N, S83A
B22: CD71-binding FN3 domain SEQ ID NO: 319 (designed binder)
chain: B1 chain with T26P, D27G, W38F, A41L, K43L, V70W, F72Q
B23: CD71-binding FN3 domain SEQ ID NO: 320 (designed binder)
chain: B1 chain with A5V, T26P, V70W, F72Q, V80N, V83A
B24: CD71-binding FN3 domain SEQ ID NO: 322 (designed binder)
chain: B2 chain with V36G, A38F, P40I, V41T, F43Y, V48I, T50F, E80N, S83A
B25: CD71-binding FN3 domain SEQ ID NO: 323 (designed binder)
chain: B2 chain with V36G, A38F, P40N, V41L, R42Y, F43L, E80N, S83G
B26: CD71-binding FN3 domain SEQ ID NO: 324 (designed binder)
chain: B2 chain with V14I, V36G, A38F, P40N, V41L, R42Y, F43L, E80N, S83A, F89S
B27: CD71-binding FN3 domain SEQ ID NO: 325 (designed binder)
chain: B2 chain with V36G, A38F, P40N, V41L, R42Y, F43L, E80N, S83A, A87E
B28: CD71-binding FN3 domain SEQ ID NO: 326 (designed binder)
chain: B1 chain with T26P, V70W, F72Q, V83T
B29: CD71-binding FN3 domain SEQ ID NO: 327 (designed binder)
chain: B1 chain with T26P, V70W, F72Q, V80N, V83A
B30: CD71-binding FN3 domain SEQ ID NO: 328 (designed binder)
chain: B2 chain with V36G, A38F, E39G, P40N, V41L, R42Y, F43L, E80N, S83A
B31: CD71-binding FN3 domain SEQ ID NO: 329 (designed binder)
chain: B6 chain with E34D, S36G, N40A, W42Y, S70R, R72W, F74G, N80Y, F81Y, F83N
B32: CD71-binding FN3 domain SEQ ID NO: 330 (designed binder)
chain: B2 chain with V36G, A38F, P40N, V41L, R42Y, F43L, E80N, S83A, F89V
B33: CD71-binding FN3 domain SEQ ID NO: 303 (designed binder)
chain: MSLPAPKNLVVSRVTEDSARLSWTAPDAAFDSFWIEYWEGWKSGEAIVLTVPGSERSYDLTGLKPGTEYRVHIWGVKGGIVSWPLSAIFTT
B34: CD71-binding FN3 domain SEQ ID NO: 310 (designed binder)
chain: MSLPAPKNLVVSRVTEDSARLSWTAPDAAFDSFEIDYGEYSQAGEAIGLLVPGSERSYDLTGLKPGTEYAVWIGGVKGGFFSTPLEADFTT
B35: CD71-binding FN3 domain SEQ ID NO: 314 (designed binder)
chain: MGSLPAPKNLVVSRVTEDSARLSWTAPDAAFDSFEIGYFENLYLGEAIVLTVPGSERSYDLTGLKPGTEYWVQIGGVKGGNWSAPLSAIFTT
B36: CD71-binding FN3 domain SEQ ID NO: 290 (designed binder)
chain: MSLPAPKNLVVSRVTEDSARLSWTAPDAAFDSFFIGYLEPQPPGEAIHLYVPGSERSYDLTGLKPGTEYNVTIQGVKGGFPSEPLVATFTT
B37: CD71-binding FN3 domain SEQ ID NO: 234 (designed binder)
chain: B36 chain with H48A, T88H
B38: CD71-binding FN3 domain SEQ ID NO: 243 (designed binder)
chain: B36 chain with F80E, P81W, E83A, V86S, T88I
B39: CD71-binding FN3 domain SEQ ID NO: 258 (designed binder)
chain: B36 chain with H48V, Y50G, E83D, T88S
B40: CD71-binding FN3 domain SEQ ID NO: 262 (designed binder)
chain: B36 chain with A46V, Y50F, E83D, T88S
B41: CD71-binding FN3 domain SEQ ID NO: 264 (designed binder)
chain: B36 chain with H48A, A87V, T88H
B42: CD71-binding FN3 domain SEQ ID NO: 265 (designed binder)
chain: B36 chain with H48S, E83D, T88H
B43: CD71-binding FN3 domain SEQ ID NO: 266 (designed binder)
chain: B36 chain with H48Y, Y50L, E83L
B44: CD71-binding FN3 domain SEQ ID NO: 270 (designed binder)
chain: B36 chain with V86I, T88N, F89S
B45: CD71-binding FN3 domain SEQ ID NO: 279 (designed binder)
chain: B36 chain with F80N, P81W, E83A, V86S, T88I
B46: CD71-binding FN3 domain SEQ ID NO: 281 (designed binder)
chain: B36 chain with H48A, V86I, T88N
B47: CD71-binding FN3 domain SEQ ID NO: 293 (designed binder)
chain: B36 chain with H48D, E83H
B48: CD71-binding FN3 domain SEQ ID NO: 294 (designed binder)
chain: B36 chain with P43L, Y50F, V86I, T88S
B49: CD71-binding FN3 domain SEQ ID NO: 295 (designed binder)
chain: B36 chain with H48D
B50: CD71-binding FN3 domain SEQ ID NO: 331 (designed binder)
chain: B36 chain with G78V, V86I, T88N

What was measured:
[1] = molecular target: T1, human CD71 extracellular domain (CD71-ECD) (human, UniProt P02786 89-760); experiment: primary ELISA, RLU ratio to HSA
T1 construct: also called hCD71; human CD71-ECD

[2] = molecular target: T1, human CD71 extracellular domain …; experiment: primary ELISA; also: test concentration or dose not given here

T1 sequence (P02786 89-760): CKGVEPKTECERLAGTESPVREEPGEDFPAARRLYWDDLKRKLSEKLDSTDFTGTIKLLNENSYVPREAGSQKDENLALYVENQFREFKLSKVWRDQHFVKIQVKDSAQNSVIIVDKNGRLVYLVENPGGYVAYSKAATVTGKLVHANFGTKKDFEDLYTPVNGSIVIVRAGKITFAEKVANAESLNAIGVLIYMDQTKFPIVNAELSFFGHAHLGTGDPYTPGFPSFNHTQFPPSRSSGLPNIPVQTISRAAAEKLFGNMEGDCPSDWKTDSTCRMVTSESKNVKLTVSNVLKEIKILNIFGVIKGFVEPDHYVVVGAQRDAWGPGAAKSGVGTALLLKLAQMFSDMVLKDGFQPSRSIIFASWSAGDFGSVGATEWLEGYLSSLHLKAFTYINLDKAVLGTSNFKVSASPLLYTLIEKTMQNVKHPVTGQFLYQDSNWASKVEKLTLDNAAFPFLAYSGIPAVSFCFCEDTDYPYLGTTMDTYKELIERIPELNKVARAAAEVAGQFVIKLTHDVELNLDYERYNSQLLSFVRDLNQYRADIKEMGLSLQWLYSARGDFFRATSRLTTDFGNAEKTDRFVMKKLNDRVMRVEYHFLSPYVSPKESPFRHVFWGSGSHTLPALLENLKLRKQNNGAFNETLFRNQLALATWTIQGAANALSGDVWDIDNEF

| Binder | hCD71:HSA [1] | RLU [2] [RLU] |
| --- | --- | --- |
| B1 | 201 | 2.81e+06 |
| B2 | 131 | 2.66e+06 |
| B3 | 77 | 3.57e+06 |
| B4 | 291 | 4.33e+06 |
| B5 | 99 | 3.39e+06 |
| B6 | 512 | 2.64e+06 |
| B7 | 287 | 3.67e+06 |
| B8 | 375 | 3.26e+06 |
| B9 | 284 | 3.88e+06 |
| B10 | 152 | 3.19e+06 |
| B11 | 274 | 3.39e+06 |
| B12 | 315 | 3.62e+06 |
| B13 | 79 | 1.17e+06 |
| B14 | 50 | 3.75e+06 |
| B15 | 127 | 3.55e+06 |
| B16 | 287 | 3.57e+06 |
| B17 | 133 | 2.38e+06 |
| B18 | 324 | 3.1e+06 |
| B19 | 480 | 2.97e+06 |
| B20 | 41 | 2.49e+06 |
| B21 | 301 | 3.03e+06 |
| B22 | 137 | 3.35e+06 |
| B23 | 172 | 2.36e+06 |
| B24 | 171 | 3.38e+06 |
| B25 | 62 | 2.75e+06 |

| Binder | hCD71:HSA [1] | RLU [2] [RLU] |
| --- | --- | --- |
| B26 | 294 | 3.13e+06 |
| B27 | 114 | 2.43e+06 |
| B28 | 79 | 1.5e+06 |
| B29 | 143 | 2.66e+06 |
| B30 | 25 | 2.18e+06 |
| B31 | 90 | 3.28e+06 |
| B32 | 54 | 2.54e+06 |
| B33 | 212 | 1.86e+06 |
| B34 | 77 | 2.22e+06 |
| B35 | 256 | 3.15e+06 |
| B36 | 138 | 5.98e+06 |
| B37 | 683 | 6.42e+06 |
| B38 | 355 | 2.78e+06 |
| B39 | 212 | 4.77e+06 |
| B40 | 529 | 6.78e+06 |
| B41 | 508 | 5.77e+06 |
| B42 | 409 | 5.66e+06 |
| B43 | 150 | 5.41e+06 |
| B44 | 65 | 5.5e+06 |
| B45 | 449 | 3.66e+06 |
| B46 | 380 | 6.37e+06 |
| B47 | 561 | 6.23e+06 |
| B48 | 215 | 6.48e+06 |
| B49 | 438 | 6.2e+06 |
| B50 | 524 | 4.66e+06 |
